T1: CD134 expressed on the cell surface of HT1080_OX40 cells (human, UniProt P43489 29-277)
T1 construct: whole, on cells; species not restated for the HT1080 transfectant
T1 sequence (looked up): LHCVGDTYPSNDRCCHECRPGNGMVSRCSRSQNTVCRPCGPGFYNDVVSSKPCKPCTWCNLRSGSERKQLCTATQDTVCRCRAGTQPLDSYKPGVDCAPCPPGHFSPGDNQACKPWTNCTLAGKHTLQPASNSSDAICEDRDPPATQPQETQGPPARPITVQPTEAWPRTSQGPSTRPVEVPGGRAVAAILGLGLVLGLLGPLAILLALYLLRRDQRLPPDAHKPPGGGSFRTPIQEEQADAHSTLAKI

T2: CD134 protein (His-tagged, Sino Biological Inc. 10481-H08H) (human, UniProt P43489 29-216)
T2 construct: bought protein coated on ELISA plates; also called OX40; TNFRSF4; not shown: His tag
T2 sequence (looked up): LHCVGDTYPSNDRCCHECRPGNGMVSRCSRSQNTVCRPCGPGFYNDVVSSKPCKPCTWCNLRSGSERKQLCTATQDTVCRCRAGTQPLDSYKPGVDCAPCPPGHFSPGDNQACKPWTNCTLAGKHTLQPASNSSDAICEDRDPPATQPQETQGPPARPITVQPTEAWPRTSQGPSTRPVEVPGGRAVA

B1: P018.S.12.A.A03 (antibody, V domains shown)
VH: LEQSAGGAEGGLVKPGGSLELCCKASGFSLNNNYWICWVRQAPGKGLEWIGCIYVGVVSLTYSASWVNGRFTLSKDIDQSTGCLQLNSLTAADTAMYYCARSLYSGYAGYGDGYYGMDLWGPGTLVTVSS
VL: GVVMTQTPASVSDPVGGTVTIKCQASQSIGSDLAWYQQKPGQPPKLLIYAASNLASGVSSRFSGIRSGTEFTLTISDLESADAATYYCQCTDYVDSHDTFGGGTEVVVK
notes: V regions on human Ig constant parts; also called AB134_52
B2: P018.S.12.A.C04 (antibody, V domains shown)
VH: QSLEESGGRLVTPGGSLTLTCTVSGIDLSRWTMSWVRQAPGKGLEWIGLIYASDDTVYASWAKGRFTISKTSTTVDLKITSPTTEDTATYFCVRVYGSTSGYYDLWGQGTLVTVSS
VL: DVVMTQTPASVSEPVGGTVTIKCQASQSISNWLAWYQQKPGQPPKLLIYYASTLASGVPSRFKGSGSGTQFTLTISDLESADAATYYCQNFGDGNSIGHAFGGGTEVVVK
notes: V regions on human Ig constant parts; also called AB134_64
B3: P018.S.12.A.D02 (antibody, V domains shown)
VH: QSVEESGGRLVTPGTPLTLTCTVSGFSLRHYAMSWVRQAPGKGLEWIGVITTTANTYYASWAKGRFTVSKASSTTVDLKIMSPTIEDTATYFCARAMGLYDSYVDVDDTHDAFDPWGPGTLVTVSS
VL: AQVLTQTASPVSAAVGGTVTINCQSSQSVYNSHVLSWYQQKPGQPPKLLIYDASNLASGVPSRFSASGSGTQFTLTISGVQSDDAATYYCLGGYDDDADNIFAFGGGTEVVVA
notes: V regions on human Ig constant parts; also called AB134_67
B4: P018.S.12.A.G01 (antibody, V domains shown)
VH: QSVEESGGRLVTPGTPLTLTCTVSGFSLSSSTMGWFRQAPGKGLEWIGVIYTDGDTYYARWAKGRFTISKTSTTINLSITSPTSEDTATYFCARRANGYDDFDPWGPGTLVTVSS
VL: AYDMTQTPASVEVAVGGTVTIKCQASESISSYLNWYQQKPGQPPKLLIYYESYLASGVPSRFKGSGSGTEYTLTISGVESADAATYYCQQGFSYINVDNTFGGGTEVVVK
notes: V regions on human Ig constant parts; also called AB134_83
B5: P018.S.11.A.H02 (antibody, V domains shown)
VH: QSVEESGGRLVTPGTPLTLTCTVSGFSLSNYAMSWVRQAPGKGLEWIGIISPSGNTYYANWAKGRFTISKTSTTVDLKITSPTTEDTATYFCAREGALYDDYGDYVDAFDPWGPGTLVTVSS
VL: AAVLTQTPSPVSAAVGGTVSISCQSSESVYNNNWLSWYQQKPGQPPKLLIYRASTLASGVPSRFKGSGSGTQFTLTISDVQSDDAATYYCAGGYSSSSDINAFGGGTEVVVK
notes: V regions on human Ig constant parts; also called AB134_46
B6: P018.S.12.A.G02 (antibody, V domains shown)
VH: QSLEESGGRLVTPGTPLTLTCTASGFSLNMFYMIWVRQAPGKGLEWIGMIDSMGSAWYASWAKGRFTISKTSTAVALKITSPTTEDTATYFCARAINGDGAGDLWGQGTLVTVSS
VL: DVVMTQTPASVSAAVGGTVTINCRASEKIDSFLAWYQQKPGQPPKLLIYGASELAPGVPSRFSGSGSGTDYTLTISALESADAATYYCQSTADGSDYVGTFGGGTEVVVK
notes: V regions on human Ig constant parts; also called AB134_84
B7: P018.S.12.A.H04 (antibody, V domains shown)
VH: QSVEESGGRLVTPGTPLTLTCTASGFSLSDYYMSWVRQAPGKGLEWIGFMNSGGNAYYASWASGRFTISKTSTTVDLKITSPTTEDTATYFCVRDLSRFSLWGRGTLVIVSS
VL: AAVLTQTPSPVSAAVGGTVTINCQASPSVYSDYLSWFQQKPGQAPKLLIYWASTLTSGVPSRFSGSGSGTQFTLTISDVQSDDAATYYCAGGYSGNSDVWAFGGGTEVVVK
notes: V regions on human Ig constant parts; also called AB134_90
B8: P018.S.11.A.E04 (antibody, V domains shown)
VH: QSVEESGGRLVTPGTPLTLTCTVSGFSLNDYAMSWVRQAPGKGLEWIGSIYTSGTPYYATWAKGRFTISKTSTTVDLKITSPTTEDTATYFCARQSGIDNYWLFTLWGQGTLVCVSS
VL: AYDMTQTPASVEVGVGGTVTIKCQASESIASGLAWYQQKPGQRPKLLIYSASSLASGVSSRFKGSGSGTQFTLTISDLESADAANYYCQQGYTSTNLHNVFGGGTEVVVK
notes: V regions on human Ig constant parts; also called AB134_35
B9: P018.S.11.A.E03 (antibody, V domains shown)
VH: QSVEESGGRLVTPGTPLTLTCTVSGFSLSSYAVSWVRQAPWKGLEWIGIISSGGNTYYASWATGRFTISKTSTTVDLKITSPTTEDTATYFCARGIHSYDDYLGYKLWGPGTLVTVSS
VL: AIEMTQSPPSLSASVGETVRIRCLASEFLFNAVSWYQQKPEKPPTLLISGASNLESGVPPRFSGSGSGTDYTLTIGGVQAEDVAAYYCLGGYKRADLTFGPGTKVEIK
notes: V regions on human Ig constant parts; also called AB134_34
B10: P018.S.12.A.D04 (antibody, V domains shown)
VH: QSVEESGGRLVTPGTPLTLTCTVSGIDLSSYAMGWVRQAPGKGLEYIGIISYDGSTYYASWAKGRFTISKTSTTVDLKITSPTTEDTATYFCARVDYGDYNFALWGQGTLVTVSS
VL: DVVMTQTPASVSEVVGGTVTIKCQASESISNYLAWYQQKPGQPPKLLIYAASNLASGVPSRFSGSGSGTQFTLTISDLESADAATYYCQCTYYVSSYFAFSGGTEVVVK
notes: V regions on human Ig constant parts; also called AB134_69
B11: P018.S.12.A.F04 (antibody, V domains shown)
VH: QQQLEESGGGLVKPGGTLTLTCTASGIDFSSYWMWWVRQPPGKGLEWVACIYNGDGSTYYASWAKGRFTISKTSSTTVTLQMTSLTAADTATYFCARDFHLWGPGTLVTVSS
VL: AQVLTQTASPVSAAVGSTVTINCQASQNIYKNNYLSWYQQKPGQPPKGLIYSASTLDSGVPLRFSGSGSGTKFTLTISDVQSDDAATYYCLGSVACSGPDCIVFGGGTEVVVK
notes: V regions on human Ig constant parts; also called AB134_80
B12: P018.S.11.A.F03 (antibody, V domains shown)
VH: QEQLVESGGGLVQPEGSLTLTCKASGFDFNNNAMCWVRQAPGKGLEWIACIYDGSSGSTYYASWAKGRFTISKTSSSTVTLQMTSLTAADTATYFCARAYAAYTVYDYAFNLWGPGTLVTVSS
VL: DVVMTQTPASVSEPVGGTVTIKCQASQSIGSDLAWYQQKPGQPPKLLIYYTTNLETGVSSRFKGSGSGTQFTLTISDLESADAATYYCQYADRSSYSFGGGTEVVVK
notes: V regions on human Ig constant parts; also called AB134_39
B13: P018.S.12.A.E06 (antibody, V domains shown)
VH: QSVEESGGRLVTPGTPLTLTCTVSGFSLSNYHMCWVRRAPGKGLEWIGSITTADETTHYANWAKGRFTISETSTTVDLRITSPTTEDTAIYFCGRTIRYDDYAVDLWGPGTLVTVSS
VL: DLVMTQTPASMSEPVGGTVTIKCQASESVGGYLAWYQQKAGQRPKLLIYAAGNLASGVPSRFKGSGSGTEYTLTISDLESADAATYYCQCTYFDSSYVGFGGGTEVVVR
notes: V regions on human Ig constant parts; also called AB134_77
B14: P018.S.11.A.B05 (antibody, V domains shown)
VH: QSVEESGGRLVTPGTPLTLTCTVSGFSLSTYNVAWVRQAPGKGLQYIGIMAFDGNTYYASWATGRFTISRTSTTVNLKITSPTTEDTATYFCCKGDPSSDTGTTLWGQGTLVTVSS
VL: AAVLTQTPSSASEPVGGTVTIKCQSSPSVYSNNWLAWFQQKPGQRPKLLIYAAAKLASGVPSRFRGSGSGTQFTLTISDVQSDDAATYYCAGGFNSDSDTTFGGGTEVVVK
notes: V regions on human Ig constant parts; also called AB134_26
B15: P018.S.12.A.H01 (antibody, V domains shown)
VH: QSVEESGGRLVTPGTPLTLTCTVSGFSLSSYAMSWVRQAPGKGLEWIGDINSYATTYYASWAKGRFTISKTSTTVDLKLTSPTTEDTATYFCAREAGYADLWGQGTLVTVSS
VL: AYDMTQTPASVEVAVGGTVTIKCQASQSISRYLSWYQQEPGQRPKLLIYEASTLASGVSSRFKGSGSGTQFTLTISGVESADAATYYCQQDYDSTDVGNTFGGGTEVVVK
notes: V regions on human Ig constant parts; also called AB134_88
B16: P018.S.08.A.B03 (antibody, V domains shown)
VH: QSVEESGGRLVTPGTPLTLTCTVSGFSLSRYAITWVRQAPGKGLEWIGIISSSGTTYYASWAKGRFTISKTSTTVDLKITSPTTEDTAIYFCARAIAGDAGYVYAIDWLDLWGQGTLVTVSS
VL: DPVLTQTPSSASEPVGGTVTIKCQASEYISNYLSWYQQKPGQPPKLLIFGASTLESGVPSRFSGSGSGTEFTLTISGVQSADAATYYCQGGYFSSSTTYVAFGGGTEVVVR
notes: V regions on human Ig constant parts; also called AB134_19

The binders below were run against T1, CD134 expressed on the cell surface of … (assay: HT1080_OX40 cells, imaging).
Further: test concentration or dose not given here.

Cellular binding assay [RFU]	Binder
493	B1
509	B2
472	B3
526	B4
515	B5
530	B6
295	B7
416	B8
318	B9
488	B10
551	B11
522	B12
493	B13
456	B14
523	B15
477	B16

These binders were tested against T1, CD134 expressed on the cell surface of … (assay: cell-based or functional assay).

Functional assay Cross-linked by F(ab′)2 fragment IL-8 [abs. corr.]	Functional assay IL-8 [abs. corr.]	Binder
1.95	0.393	B1
1.83	0.215	B2
1.77	0.333	B3
1.86	1.33	B4
1.8	0.783	B5
1.81	0.212	B6
1.89	-0.121	B7
1.83	-0.194	B8
1.79	0.481	B9
1.86	0.139	B10
1.95	0.289	B11
1.94	0.38	B12
1.87	0.054	B13
1.83	1.36	B14
1.83	0.43	B15
1.94	0.709	B16

The binders below were run against T2, CD134 protein (His-tagged, Sino …) (assay: ELISA, coated His-tagged CD134).

ELISA [abs. corr.]	Binder
1.44	B1
2.04	B2
2.64	B3
1.56	B4
2.8	B5
2.33	B6
1.98	B7
1.31	B8
0.276	B9
2.23	B10
2.11	B11
1.85	B12
2.3	B13
1.65	B14
1.89	B15
2.66	B16
